Measured values as given in article PMC10244618.
Several values for one entry are separate records, joined by “and”; a condition that tells them apart may be missing. Identical values can stand only once.

B1: NF2 (merlin) isoform 7, human, full length (507 aa, lacks exons 2-3 = isoform-1 residues 39-121; exon-16 C-terminus), P35240-4 (parent)
chain: MAGAIASRMSFSSLKRKQPKTFTVRIVTMDAEMEFNCEVKKQILDEKIYCPPEASVLLASYAVQAKYGDYDPSVHKRGFLAQEELLPKRVINLYQMTPEMWEERITAWYAEHRGRARDEAEMEYLKIAQDLEMYGVNYFAIRNKKGTELLLGVDALGLHIYDPENRLTPKISFPWNEIRNISYSDKEFTIKPLDKKIDVFKFNSSKLRVNKLILQLCIGNHDLFMRRRKADSLEVQQMKAQAREEKARKQMERQRLAREKQMREEAERTRDELERRLLQMKEEATMANEALMRSEETADLLAEKAQITEEEAKLLAQKAAEAEQEMQRIKATAIRTEEEKRLMEQKVLEAEVLALKMAEESERRAKEADQLKQDLQEAREAERRAKQKLLEIATKPTYPPMNPIPAPLPPDIPSFNLIGDSLSFDFKDTDMKRLSMEIEKEKVEYMEKSKHLQEQLNELKTEIEALKLKERETALDILHNENSDRGGSSKHNTIKKPQAQGRRPICI

Variants of: B1
Experiment: reverse yeast two-hybrid deep mutational scan (rY2H-seq): NF2 isoform 7 mutant library as bait mated with wild-type prey strains; selection on medium lacking adenine for non-interacting pairs; NextSeq paired-end sequencing; enrichment vs …
Conditions: yeast diploids after mating (RBait_S3 x RPrey_S3), 30 °C, selection for reporter genes on NB agar, HIGHER = WEAKER BINDING (the opposite of display enrichments): higher = stronger loss of interaction: reverse Y2H selects yeast in which bait and prey do NOT interact (growth without adenine), so a …, hits-only table, scale: rY2H score, numbering: uniprot, sequence starts at 1
[1] = with EMILIN1 (elastin microfibril interfacer 1), Q9Y6C2, human ABL2 co-expressed as the kinase-dead K35M mutant …
[2] = with EMILIN1 (elastin microfibril interfacer 1), Q9Y6C2, human tyrosine kinase ABL2 co-expressed as the active kinase …
[3] = with KDM1A (lysine-specific histone demethylase 1A; the table's label AOF2 is a gene synonym of KDM1A), O60341, human ABL2 co-expressed as the kinase-dead K35M mutant …
[4] = with KDM1A (lysine-specific histone demethylase 1A; the table's label AOF2 is a gene synonym of KDM1A), O60341, human tyrosine kinase ABL2 co-expressed as the active kinase …
[5] = with NF2 C-terminal domain (wild type; homomeric NF2-NF2 interaction), P35240, human ABL2 co-expressed as the kinase-dead K35M mutant …, partner unresolved
[6] = with PIK3R3 (phosphatidylinositol 3-kinase regulatory subunit gamma), Q92569, human tyrosine kinase ABL2 co-expressed as the active kinase …

| Variant | enrichment [1] | enrichment [2] | enrichment [3] | enrichment [4] | enrichment [5] | enrichment [6] |
| --- | --- | --- | --- | --- | --- | --- |
| P163L | 3.08 | 3.88 | 7.24 | 5.95 | 1.78 | 12.3 |
| P163K | 5.55 |  | 7.04 | 5.58 |  |  |
| A59L | 10.7 and 8.14 |  | 15.4 | 29 | 7.54 | 25.9 |
| A302E | 4.06 |  | 2.49 and 5 |  |  |  |
| L151K | 3.05 |  |  |  |  |  |
| L151S | 3.66 |  | 7.87 | 6.8 | 12.3 |  |
| L151R | 3.32 and 4.31 | 6.23 and 2.68 | 3.69 |  |  |  |
| R253K | 5.53 | 10.6 | 6.44 and 7.44 |  | 1.43 |  |
| E272A | 3.71 |  | 2.65 |  |  |  |
| E272K | 1.57 |  | 3.01 and 2.96 | 1.77 | 3.42 and 3.26 | 2.55 and 1.61 and 4.74 |
| E325L | 2.13 |  | 5.66 |  | 3.02 |  |
| P87S | 1.62 | 1.61 | 2.56 | 3.13 |  | 2.86 |
| N137L | 2.2 | 2.24 |  | 1.53 |  | 1.5 |
| K340E | 2.44 and 2.85 | 4.17 and 3.5 | 1.93 and 2.13 | 1.71 and 2.96 | 2.5 and 3.18 | 5 |
| K340A | 2.47 | 2.67 | 3.4 and 3.43 | 3.04 and 2.28 |  | 1.46 |
| R208C | 2.09 |  |  |  |  |  |
| V347E | 2.33 and 1.87 |  | 3.23 |  | 2.41 |  |
| A333L | 2.47 |  | 1.58 | 1.46 |  |  |
| A333T | 2.19 |  |  |  |  |  |
| A333K | 1.75 | 5.66 | 4.26 and 3.03 |  |  |  |
| V56C | 2.08 | 3.78 and 9.66 | 7.69 and 9.8 | 6.5 | 3.78 | 11.6 and 11.3 |
| K66E | 2.7 |  |  | 3.77 |  | 4.55 |
| K66A | 2.97 | 3.9 | 3.6 |  |  | 5.98 |
| Q261L | 4.37 |  |  |  |  |  |

| Variant | enrichment [1] | enrichment [2] | enrichment [3] | enrichment [4] | enrichment [5] | enrichment [6] |
| --- | --- | --- | --- | --- | --- | --- |
| G135E | 2.42 |  | 2.61 |  |  |  |
| E349T | 2.72 and 2.96 | 3.96 and 3.74 | 3.54 and 3.02 | 2.75 |  |  |
| G146L | 2.08 | 6.29 |  |  |  |  |
| E296L | 2.9 |  |  |  |  |  |
| P52E | 9.88 |  |  |  |  |  |
| L158K | 2.72 | 3.39 and 2.28 |  |  |  |  |
| L158E | 4.99 | 4.25 and 2.98 |  |  |  |  |
| L158A | 2.28 | 2.56 |  | 11 | 1.57 |  |
| A155L | 2.92 and 3.34 |  |  |  |  |  |
| V74C | 2.3 |  | 2.58 |  |  | 1.98 |
| V74L | 3.98 |  |  |  |  |  |
| E323K | 1.53 | 1.69 |  |  |  | 4.79 |
| R268K | 3.47 |  |  |  |  |  |
| R268P | 1.95 |  |  |  |  |  |
| L149A | 4.26 | 2.53 and 5.08 |  |  | 2.75 and 3.85 | 17.7 |
| K318L | 2.66 | 1.75 |  |  |  |  |
| K318E | 3.15 |  |  | 1.81 |  |  |
| K318T | 1.91 |  |  | 1.54 |  |  |
| A298K | 1.79 |  |  |  |  |  |
| I334T | 1.75 | 1.68 and 2.52 | 2.69 and 1.45 |  |  |  |
| I334E | 2.52 |  | 4.73 and 1.72 |  |  | 2.25 |
| I334L | 1.59 and 1.85 |  |  | 3.11 |  | 1.39 |
| I334K | 1.69 |  | 2.46 | 3.87 |  | 2.88 |
| G78A | 3.44 |  |  |  |  |  |

| Variant | enrichment [1] | enrichment [2] | enrichment [3] | enrichment [4] | enrichment [5] | enrichment [6] |
| --- | --- | --- | --- | --- | --- | --- |
| R25L | 3.54 |  | 4.09 | 7.07 |  |  |
| Q324A | 1.9 | 3.69 | 2.45 |  |  |  |
| A240S | 2.4 |  |  | 1.71 |  |  |
| G157L | 1.8 and 2.26 | 7.41 and 6.52 | 2.15 and 1.62 | 10.1 and 8.48 | 1.76 |  |
| G157A | 6.42 |  |  | 5.01 | 2.36 and 4.41 |  |
| D299A | 1.54 |  |  |  |  |  |
| M292S | 1.52 |  | 1.74 |  | 1.49 | 1.46 |
| M292A | 6.8 |  |  |  |  |  |
| E303V | 5.6 and 16.3 |  |  |  |  |  |
| L156P | 2.26 |  | 3.08 and 3.61 | 1.95 | 3.25 and 1.98 |  |
| R270L | 1.78 | 6.66 |  |  | 2.39 |  |
| L348S | 3.01 | 3.29 | 4.93 |  |  |  |
| L348E | 2.15 | 2.19 |  |  | 1.71 |  |
| L301E | 7.29 | 1.77 | 4.8 |  | 3.42 |  |
| L301K | 4.43 |  |  |  |  |  |
| E267A | 2.15 |  |  |  |  |  |
| T147E | 4.29 |  |  |  |  |  |
| T168L | 2.75 | 6.59 and 12.1 | 7.24 |  |  |  |
| Q327Y | 2.5 |  |  |  |  |  |
| Q327K | 1.55 |  |  |  |  |  |
| R341L | 2.12 and 2.16 |  | 4.47 and 2.73 |  | 1.59 |  |
| R341K | 2.64 | 3.2 | 7.07 |  |  |  |
| R341E | 3.61 |  |  |  | 2.88 | 6.39 |
| M326E | 4.89 | 3.65 | 6.72 | 1.86 | 1.94 |  |

| Variant | enrichment [1] | enrichment [2] | enrichment [3] | enrichment [4] | enrichment [5] | enrichment [6] |
| --- | --- | --- | --- | --- | --- | --- |
| R328E | 2.55 |  |  |  |  | 3.12 |
| R328A | 2.29 |  | 1.66 |  |  |  |
| G219E | 1.55 |  |  |  |  |  |
| E344L | 4.18 and 2.17 | 2.34 and 1.8 |  | 2.31 |  |  |
| E344G | 6.34 and 11.1 |  | 10.3 |  |  |  |
| E344K | 1.78 and 4.12 | 3.82 and 2.77 | 1.57 |  |  | 4.06 |
| D30L | 3.86 |  |  |  |  |  |
| D30A | 6.06 |  |  |  |  |  |
| E339K | 4.07 and 1.56 | 3.86 | 2.92 | 2.13 | 1.45 | 1.62 |
| E339A | 2.51 | 1.94 |  |  |  |  |
| E339L | 1.74 |  |  |  | 1.65 |  |
| E339T | 3.93 | 5.99 | 2.02 |  | 2.08 |  |
| N180T | 1.38 |  |  |  |  |  |
| L214E | 8.22 | 5.18 and 15.2 | 13.4 |  | 2.48 | 30 |
| M251A | 3.87 and 2.36 | 6.14 | 4.5 | 2.61 |  | 4.21 |
| T308E | 2.33 |  |  |  | 3.16 |  |
| T308D | 4.89 | 2.02 | 2.33 |  | 2.47 |  |
| T308K | 2.66 and 1.9 | 2.2 and 3.37 | 2.96 | 2.24 | 5.45 |  |
| A331L | 2.6 and 2.58 | 3.27 | 4.61 and 1.64 | 5.02 |  |  |
| A322E | 3.28 |  |  |  | 2.97 |  |
| R227K | 1.95 |  |  |  |  |  |
| T332L | 1.4 |  |  |  |  | 2.31 |
| T332D | 4.98 and 1.87 | 2.07 |  |  |  |  |
| E274K | 1.67 |  |  |  |  |  |
